Consider three substances from publication PMC7272049.

In general, Kd refers to a measure of binding affinity in units of concentration.

For experiment [1], the target named is B7-1 (Mus musculus) (UniProt Q00609). The settings on record: cited from earlier work.
Experiment [2] concerns the target mB7-1 mIgG2a (UniProt Q00609). Nature of the experiment: FACS titration. Conditions: cells expressing PD-L1 titrated with recombinant B7-1 Fc-fusion; anti-mouse Alexa 488 secondary; single-site binding model.
The target in experiment [3] is mPD-1 mIgG2a (UniProt Q02242). Nature of the experiment: FACS titration. Conditions: cells expressing PD-L1 titrated with recombinant PD-1 Fc-fusion; anti-mouse Alexa 488 secondary; single-site binding model.
Experiment [4] addresses B7-1 (Homo sapiens) (UniProt P33681). The settings on record: cited from earlier work.

Sequence of B7-1 (P33681 35-242): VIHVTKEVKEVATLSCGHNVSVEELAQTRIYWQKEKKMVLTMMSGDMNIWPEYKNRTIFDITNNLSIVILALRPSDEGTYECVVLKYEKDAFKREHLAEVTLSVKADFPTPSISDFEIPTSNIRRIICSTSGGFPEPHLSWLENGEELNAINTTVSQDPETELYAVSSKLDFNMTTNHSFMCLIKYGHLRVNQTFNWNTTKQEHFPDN
Sequence of PD-L1 (Q9EP73 19-239): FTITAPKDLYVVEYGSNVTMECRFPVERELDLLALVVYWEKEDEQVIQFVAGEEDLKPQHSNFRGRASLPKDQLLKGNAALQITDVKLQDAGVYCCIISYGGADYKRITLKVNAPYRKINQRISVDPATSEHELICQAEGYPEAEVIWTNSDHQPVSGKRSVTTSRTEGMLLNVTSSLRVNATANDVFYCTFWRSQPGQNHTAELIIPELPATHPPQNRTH

In the case of PD-L1 (from UniProt Q9EP73), the Kd in experiment [1] was 1.6 µM.

In the case of “WT mPD-L1 mCherry (from UniProt Q9EP73) D28R”, the other: Bmax was 73.1 in experiment [2] and 93.4 in experiment [3].

As to B7-1 (from UniProt P33681), the Kd in experiment [4] was 35 µM.
